The results in this text go back to the nanobody polyreactivity screen of Harvey et al. (2022).

The data set is described as follows: yeast display, Sf9 membrane polyspecificity reagent, FACS + sequencing; frameworks hold sequencing errors. The method in brief:
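Galactose induction of a Saccharomyces cerevisiae BJ5465 synthetic nanobody display library ran 36–48 hours. The cells were then stained for 1 hour at 4 °C with 10% biotinylated, detergent-solubilized Sf9 membrane reagent, pulled down on streptavidin microbeads and FACS-sorted into low and high (top ~1%) gates on expression and reagent-binding fluorescence. Labels for polyreactivity follow the gate of origin.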
In the case of “QVQLVESGGGLVQAGGSLRLSCAASGRISGYYAMGWYRQAPGKEREFVAAITRSGGSTYYADSVKGRFTISRDNAKNTVYLQMNSLKPEDTAVYYCAADTRGFSYGNGYGYWGQGTQVTVSS”, the “polyreactivity (PSR sort gate)” value was “low polyreactivity”.

As to “QVQLVESGGGLVQAGGSLRLSCAASGRIFSAYTMGWYRQAPGKERELVAAITWSGGTTYYADSVKGRFTISRDNAKNTVYLQINSLKPEDTAVYYCAAESSWYVLYGSYYRSGLEYWGQGTLVTVSS”, the “polyreactivity (PSR sort gate)” value is “low polyreactivity”.

In the case of “QVQLVESGGGLVQAGGTLRLSCDASGFIFPGYAKGWSRNATGKQREFVAAISRSGGSTYYADSVKGRFTISRDNAKNTVYLQMNSLKPEDTAVYYCATRARGYTGYDYWGQGTQVTVSS”, the “polyreactivity (PSR sort gate)” value is “high polyreactivity”.

Regarding “QVQLVESGGGLVQAGGSLRLSCAASGRIFSSNAMGWYRQAPGKERELVAAITSGGSTYADSVKGRFTISRDNAKNTVYLQMNSLKPEDTAVYYCAKDGPGGGTRIYDYWGHGTQVTVSS”, the “polyreactivity (PSR sort gate)” value is “high polyreactivity”.

In the case of “QVQLVESGGGLVQAGGRLRLSCAASGSTLYAYGMGWYRQAPGKERELVAAIRTGGSTYYADSVKGRFTISRDNAKITVYLQMNSLKPEDTAVYYCAADHGYQYGYWGQGTQVTVSS”, the “polyreactivity (PSR sort gate)” value is “low polyreactivity”.

With “QVQLVESGGGLVQAGGSLRLSCAASGRICEVYAMGWYRQAPGKERELVAAINSGGSTRYADSVKGRFTISRDNAKNTVYLQMNSLKPEDTAVYYCNARPGYYRYLRGYNYWGQGTQVTVSS”, the “polyreactivity (PSR sort gate)” value is “low polyreactivity”.

Take “QVQLVESGGGLVQAGGSLRLSCAASGSTFTDYDMGWYRQAPGKERELVAAITSGGSTNYADSVKGRCTISRDNAKNTVYLQMNRLKPEDTAVYYWAAADADSKYDYWGQGTQVTVSS”: the “polyreactivity (PSR sort gate)” value is “low polyreactivity”.

Regarding “QVQLVESGGGLVQAGGSLRLSCAASGSIFLNYAMGWYRQAPGKERELVAGISNGGSTNYADSVKGRFTISRDNAKYTVYLQMNSLKPEDTAVFYCARPGYKSRGKRFDYWGQGTQVTVSS”, the “polyreactivity (PSR sort gate)” value is recorded as “low polyreactivity”.

As for “QVQLVESGGGLVHAGGSLRLSCAASGRIFQVYAMGWYRQAPGKERELVAAISARGGSTYYADSVKGRFTISRDNAKNTVYLQMNSLKPEDTAVYYCAARSAYGTQRLYYWGQGTQVTVSS”, the “polyreactivity (PSR sort gate)” value was “high polyreactivity”.

On to “QVQLLESGGGLFQAGGILRLSCAASGLIFWSNAMGWYRKEPGKERELVAAISRRGGRTYYADSVKGRFTISRDNAKNTVYVQMNSLKPEDSALYYCNADLYFLTFGYDYWGQGTQVTVSS”, for which the “polyreactivity (PSR sort gate)” value was “high polyreactivity”.

Turning to “QVQLVESGGGLVQAGGSLRLSCAATGRPSTSMLWDGIDRRLGKKGSSLTYYADSVKGRFTISRDNAKNTVYLQMNCLKPEDTAVYYCNKRRRWDNYGYRYGYWGQGTQVTVSS”, the “polyreactivity (PSR sort gate)” value is “low polyreactivity”.

Regarding “QVQLVESGGGLVQAGGSLRLSGAASGYIFLGNAMGWYRQAPGKERELVAAISRSGGSTYYADSVKGRFTISRDNAKNTVYFHMNSLKPEYTAVYYCAADLPNPKWYGYDYWGQGTQVNVSS”, the “polyreactivity (PSR sort gate)” value was “high polyreactivity”.

With “QVQLVESGGGLVQAGGSLRLSCAASGFIFTGYAMGWYRPAPRKERELVAAITKSGGSTYYADSVKGRFTISRDNAKNTVYLQMNSLKPEDTAVYYFNTYVWRWSKGGYWGHGTQVTVSS”, the “polyreactivity (PSR sort gate)” value is “high polyreactivity”.

In the case of “QVQLVESGGGLVQAGGSLRLSCVASGFNFRGNAMGLYRQAPGKERELVATISSGGNTYYADSVKGRFTISRDNAKNTVYLQMNSLKPEDTAVYYCNASDGLPTKLNVYVEFDYWGQGTQVTVSS”, the “polyreactivity (PSR sort gate)” value was “low polyreactivity”.

On to “QVQLVESGGGLVQAGGSLRLSCAASGSTFWGYAMGWYRQAPGKERELVAAITSGGRTDYADSVKGRFTISRHNAKNTVYLQMNSRKPEDTAVYYCNAYLYYYRYHYNYWGQGTQVTVSS”, for which the “polyreactivity (PSR sort gate)” value is listed as “low polyreactivity”.

On to “QVQLLESGGGLVQAGGSLRLTCAASGSTFDYYAMGWYRQAPGKERELVATISYNDDTTYYADSVKGRFTISRDNAKNTVYLQMNSLKPEDTAVYYCNAEVYGGRYYVDMYYWGQGTQVTVSS”, for which the “polyreactivity (PSR sort gate)” value is reported as “low polyreactivity”.

Consider “QVQLVESGGGLVQAGGSLRLSCAASGRIFNFYAMGWYRQAPGKERELVASITSGGRTSYADSVKGRFTISRDNAKNTVYLQMNSLKPEDTAVYYCAAKSPLKTYYFTSFRYYYWGQGTQVTVSS”, for which the “polyreactivity (PSR sort gate)” value is recorded as “high polyreactivity”.

On to “QVQLVESGGGLVQAGGSLRLSCAASGRIFGNYAMGWYRQAPGKERELVAAITSGARTYYADSVKGRFTLSRDNAKNTVYLQMNSLKPEDTAVYYCAAYHKSYSNRYDYWGQGTHVTVSS”, for which the “polyreactivity (PSR sort gate)” value is “high polyreactivity”.

As for “QVQLVESGGGLVQAGGSLRLSCAGSGIILYWNTMGWYRHAPGKERELVAAITWSVGRTYYADSVKGRFTISRDNAKNTVYLQMNSLKPEDTAVYYCATTFQYYWFSLYDYWGQGTQVTVSS”, the “polyreactivity (PSR sort gate)” value was “low polyreactivity”.

Regarding “QVQLVESGGGLVQAGGSLRLSCAASGRTFNYYAMGWYRQAPGKERELVAAISRSGGSTYYADSVKGRFTISRDNAKNTVYLQMNSLKPEDTAVYYCAVAWNVRGVGARQRYIYGYWGQGTQVTVSS”, the “polyreactivity (PSR sort gate)” value is recorded as “high polyreactivity”.

As to “QVQLVDSGGGLVQAGGSLRLSCAASGSIFGYYAMGWYRQAPGKERELVAAINSGSSTNYADSVKGRFTISRDNAKNTVYLQMNSLKPEDTAVYYCNKDPWYVFHPRGLFLFDYWGQGTQVTVSS”, the “polyreactivity (PSR sort gate)” value is listed as “low polyreactivity”.

On to “QVQLVESGRGLVQAGGSLRLSCAASGIIFEYYTMGWSRPAPGKERELVASITYDGDSTYYADSVKGRFTISRDNAKNTVYLQMNSLKPEDTAVYYCAAEYYYVYSSFGHFYWGQGTQVTVSS”, for which the “polyreactivity (PSR sort gate)” value is “low polyreactivity”.

As to “QVQLVESGGGLVQAGGSLRLSCAASGSIFLSNMGWYREAPGKQRELVAAITIGGSTDYADSVKGRFTISRDNAKNTVFLQMNSLKPEDTAVYYCNADNPYSDGADSLGNYWGHGTQVTVSS”, the “polyreactivity (PSR sort gate)” value was “low polyreactivity”.

For “QVQLVESGGGLVQAGGSLRLSCAASGSIFKSNAMGWYRQAPGKERELVAAISNGGITNYADSVKGRFTISRDNAKNTVYLQMNSLKPEDTAVYYCATSDVREIWVDYWGQGTQVTVSS”, the “polyreactivity (PSR sort gate)” value was “low polyreactivity”.

For “QVQLVESGGGLVQAGGSLRLSCAASGSTFSRYAMGWYRQAPGKERELVAAISSRGGSTYYADSVKGRFTISRDNAKNTVYLQMNSLKPEDTAVYYCNALSSYQNHVYPYDYWGQGTQVTVSS”, the “polyreactivity (PSR sort gate)” value was “high polyreactivity”.

On to “QVQLVESGGGLVQAGGSLRLSCAASGFTFSLNTMGWYRQAPGKEREFVAAITYRTGRTYYADSVKGRFTISRDNAKNTVYLQMNSLKPDDTAVYYCNAGEHTRWYYWTPTYTTVDYWGLGTQVTVSS”, for which the “polyreactivity (PSR sort gate)” value is reported as “low polyreactivity”.

As for “QFQLVESGGGLVQAGGSLRLSCAASGSIFSVYTKGRYRQAPGKERELVAAISTGGGSTYYADSVKGRFTISRDNAKNTVYLQMNSLKPEDTALYYCATDYGWAPSYWYDSCGQGTQVTVSS”, the “polyreactivity (PSR sort gate)” value was “low polyreactivity”.

For “QVQLVESWGGVVQAGVSLRLSCAASGINFYSYAMGWYRQAPGKERELVAAISNNGGSTYADSVKGRFTISRDNAKNTVYLQMNSLKPEDTAVYYCAADPTGGVGFDGYYWGQGTQVSVSS”, the “polyreactivity (PSR sort gate)” value is on record as “low polyreactivity”.

Consider “QVQLVESGGGLVQAGGSLRLSCAASGRIFQYYAMGWYRQAPGKERELVAAISSSGGSTYYADSVKGRFTISRDNAKNTVYLQMNSLKPEDTAVYYCNADRNARQNRRDYWGQGTQVTVSS”, for which the “polyreactivity (PSR sort gate)” value is on record as “high polyreactivity”.

On to “QVQLVESGGGLVQAGGSLRLSCAASGRTFTWYAMGWYRQAPGKERELVAAITNGGRRYADSVKGRFTISRDNAKTTVYLQMNSLKPEDTAVYYCATQPLTWSSYRWDWRAQFDHWGQGTQVTVSS”, for which the “polyreactivity (PSR sort gate)” value is listed as “low polyreactivity”.

For “QVQLVESGGGLVQAGGSLRLSCAASGRTYHQYAMGWYRQAPGKERELVARITSGGRTNYADSVKGRFTISRDNAKNTVYLHMNSLKPEDTAVYYCPAASSYYFYISSKLDYWGQGTQVTVSS”, the “polyreactivity (PSR sort gate)” value is reported as “high polyreactivity”.

With “QVQLVESGGVLVQAGGSLRLSCAASGSIYRYYAMGWYRQAPGKERELVAAISWRGGSTYYADSVKGRFTISRDNAKNPVYLQMNSLKPEDTAVYYCAAELWVGTYGEYDYWGQGTQVTVSS”, the “polyreactivity (PSR sort gate)” value was “low polyreactivity”.

For the sequence “QVQLVESGGGLVQAGGSLRLSCAASGRISYGNGMGWYIQAPGKERELVAAISWSTTRTYYADSVKGRFTISRDYAKNTVYLQMNSLKPEDTAVYYCNAAGRPYDFSGGRTMEYWGQGTQVTVSS”, the “polyreactivity (PSR sort gate)” value is reported as “high polyreactivity”.

Regarding “QVQLVESGGGLVQAGGSLRLSCAASGSTFAPNAMGWYRQAPGKERELVAAISRGGSTYYADSVKGRFTISRDNAKNTVYLQMNSLKPEDTAVYYCAVYKFHYGYVWYPYDYWGQGTQVTVSS”, the “polyreactivity (PSR sort gate)” value is “high polyreactivity”.

Take “QVQLVESGGGLVQAGGSLRLSCAASGSTFQINAMGWYRQAPGKEREFVAAITVSSGSTYYADSVKGRFTISRDNAKNTVYLQMNSLKPEDTAVYYCAAEFHWWYAGYDYGYWGQGTQVTVSS”: the “polyreactivity (PSR sort gate)” value is reported as “low polyreactivity”.

For “QVQLVESGGGLDQAGGSLRLSCAASGSTFARNVMGWYRLAPGKERELVAAISWRGGRTYYADSVKGRFTISRDNAKNTVYLQMNSLKPEDTAVYYCAAGRSFRGSYWYEYWGQGTQVTVSS”, the “polyreactivity (PSR sort gate)” value was “high polyreactivity”.

Regarding “QVQLVESGGGLVQAGGSLRLSCAASGSTSPLYAMGWYRQAPGKERELVAAISWSTGSTYYADSVKGRFTISRDNAKNTVYLQMNSLKPEDTAVYYCAADYWFRYGTYEYWGQGTQVTVSS”, the “polyreactivity (PSR sort gate)” value is on record as “high polyreactivity”.

With “QVQLVESGGGLVQAGGSLRLSWAASGSTLSLYAMGWYRQAPGKERELVAAITSSGGTYYADSVKGRFTISRDNAKNTVYLQMNSLKPEVTAVYYCNAYAKDARSYGYHRVNYWGQGTQVTVSS”, the “polyreactivity (PSR sort gate)” value was “high polyreactivity”.

Turning to “QVQLVESVGGLVQAGGSLRLSCAASGSIFVKNAMGWYRQAPGKERELVAVITIRTATTYYADSVKGRFTISRDNAKNTVYLQMNSLKPEDTAVYYCAAAKRQRGYLQREYDYWGQGTQVTVSS”, the “polyreactivity (PSR sort gate)” value is “low polyreactivity”.

For the sequence “QVQLVESGGGLVQAGGSLRLSCAASGINFVYYAKGWYRPAAGKERELVAGITVNGGNTYYADSVKGRFTLSRDNAKNTVYLQMNSLKPEDTAVYYCNADYYWVLGVFDYWGHGTQVTVSS”, the “polyreactivity (PSR sort gate)” value was “low polyreactivity”.
